Source: patent publication US20180134765A1 (AVIDBIOTICS, published 2018)

How the values were obtained:
FGFR3 (plate-coated) [1] = molecular target: T1, FGFR3 (plate-coated) (UniProt P22607 23-375); assay: ELISA on FGFR3-coated wells after 1 h at 70 C and 1 h at room temperature
T1 construct: also called Fibroblast Growth Factor Receptor 3
T1 sequence (looked up): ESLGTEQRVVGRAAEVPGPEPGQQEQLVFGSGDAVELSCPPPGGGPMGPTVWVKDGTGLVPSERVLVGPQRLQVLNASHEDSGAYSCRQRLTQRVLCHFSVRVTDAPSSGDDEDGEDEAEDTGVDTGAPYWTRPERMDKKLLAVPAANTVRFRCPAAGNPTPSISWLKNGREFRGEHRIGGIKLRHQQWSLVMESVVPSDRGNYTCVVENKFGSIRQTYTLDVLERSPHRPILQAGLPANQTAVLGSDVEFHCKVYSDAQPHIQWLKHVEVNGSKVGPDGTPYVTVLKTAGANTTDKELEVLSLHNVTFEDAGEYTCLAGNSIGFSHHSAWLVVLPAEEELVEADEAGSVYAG

FGFR3 (plate-coated) [2] = molecular target: T1, FGFR3 (plate-coated); assay: ELISA on FGFR3-coated wells after 1 h at 80 C and 1 h at room temperature
FGFR3 (plate-coated) [3] = molecular target: T1, FGFR3 (plate-coated); assay: ELISA: FGFR3 coated at 2 ug/ml, protein titrated, bound protein detected with NKG2D-Fc and anti-Fc-HRP
human NKG2D-Fc [4] = molecular target: T2, human NKG2D-Fc (human, UniProt P26718 78-216, limits assumed); assay: ELISA: protein captured on FGFR3 detected with NKG2D-Fc
T2 construct: also called natural NKG2D-Fc; not shown: Fc part
T2 sequence (looked up): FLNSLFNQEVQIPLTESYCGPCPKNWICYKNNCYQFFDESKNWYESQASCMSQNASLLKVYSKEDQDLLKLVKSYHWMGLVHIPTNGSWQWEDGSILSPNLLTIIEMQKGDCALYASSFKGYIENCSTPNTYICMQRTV

FGFR3 (plate-coated) [5] = molecular target: T1, FGFR3 (plate-coated); assay: ELISA: FGFR3 coated at 2 ug/ml, protein titrated, bound protein detected with NKG2D-Fc and anti-Fc-HRP; remark: listed apart in the source
MICA-Fc = molecular target: T3, MICA-Fc; assay: ELISA: ligand-Fc coated at 2 ug/ml, biotinylated NKG2D Y152A, Y199A ectodomain titrated, streptavidin-HRP
T3 construct: also called natural α1-α2-α3-Fc fusion
T3 chain: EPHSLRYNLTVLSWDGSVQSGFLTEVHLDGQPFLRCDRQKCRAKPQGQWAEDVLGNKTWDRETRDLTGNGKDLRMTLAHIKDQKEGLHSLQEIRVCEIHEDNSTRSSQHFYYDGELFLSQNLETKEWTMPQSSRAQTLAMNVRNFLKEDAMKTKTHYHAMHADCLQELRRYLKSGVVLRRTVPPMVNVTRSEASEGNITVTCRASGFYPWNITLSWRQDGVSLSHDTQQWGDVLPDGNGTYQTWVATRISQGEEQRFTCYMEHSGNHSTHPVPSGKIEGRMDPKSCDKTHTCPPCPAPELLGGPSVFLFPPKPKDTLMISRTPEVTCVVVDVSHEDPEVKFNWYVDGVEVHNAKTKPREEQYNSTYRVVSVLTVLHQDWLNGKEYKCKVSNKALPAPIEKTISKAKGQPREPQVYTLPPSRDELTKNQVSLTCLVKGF

MICwed-Fc = assay: as above
MICv25-Fc = molecular target: T4, MICv25-Fc; assay: as above
T4 construct: also called MIC-v25 α1-α2 domain ligand

MICB-Fc = molecular target: T5, MICB-Fc (UniProt Q29980 23-298); assay: as above
T5 construct: Bought, R&D Systems; not shown: Fc part of the bought reagent
T5 sequence (looked up): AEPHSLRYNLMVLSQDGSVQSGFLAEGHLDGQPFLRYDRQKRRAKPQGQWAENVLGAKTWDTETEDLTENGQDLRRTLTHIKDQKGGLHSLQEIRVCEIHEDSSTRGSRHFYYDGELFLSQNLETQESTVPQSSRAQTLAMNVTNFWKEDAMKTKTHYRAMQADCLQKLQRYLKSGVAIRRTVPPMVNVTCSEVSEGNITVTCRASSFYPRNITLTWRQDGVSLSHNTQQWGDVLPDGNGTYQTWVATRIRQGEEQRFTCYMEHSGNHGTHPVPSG

ULBP1-Fc = molecular target: T6, ULBP1-Fc (UniProt Q9BZM6 26-216); assay: as above
T6 construct: Bought, R&D Systems; not shown: Fc part of the bought reagent
T6 sequence (looked up): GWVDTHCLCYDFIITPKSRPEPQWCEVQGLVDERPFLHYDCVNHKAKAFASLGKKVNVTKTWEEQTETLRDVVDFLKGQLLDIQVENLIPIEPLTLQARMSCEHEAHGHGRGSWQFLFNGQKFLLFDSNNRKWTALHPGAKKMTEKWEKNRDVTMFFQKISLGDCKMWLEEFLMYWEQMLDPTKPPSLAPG

ULBP2-Fc = molecular target: T7, ULBP2-Fc (UniProt Q9BZM5 26-217); assay: as above
T7 construct: Bought, R&D Systems; not shown: Fc part of the bought reagent
T7 sequence (looked up): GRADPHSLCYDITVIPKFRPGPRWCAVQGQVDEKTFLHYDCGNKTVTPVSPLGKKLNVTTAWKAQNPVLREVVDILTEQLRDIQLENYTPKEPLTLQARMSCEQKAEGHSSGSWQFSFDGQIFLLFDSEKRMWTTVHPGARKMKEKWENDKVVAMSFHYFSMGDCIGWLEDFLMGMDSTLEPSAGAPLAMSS

ULBP3-Fc = molecular target: T8, ULBP3-Fc (UniProt Q9BZM4 30-217); assay: as above
T8 construct: Bought, R&D Systems; not shown: Fc part of the bought reagent
T8 sequence (looked up): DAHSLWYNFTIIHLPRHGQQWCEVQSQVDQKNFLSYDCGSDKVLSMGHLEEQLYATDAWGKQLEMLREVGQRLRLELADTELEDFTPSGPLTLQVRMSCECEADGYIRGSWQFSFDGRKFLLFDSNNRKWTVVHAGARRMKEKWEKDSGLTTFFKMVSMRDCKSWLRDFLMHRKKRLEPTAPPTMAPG

ULBP4-Fc = molecular target: T9, ULBP4-Fc (UniProt Q8TD07 31-225); assay: as above
T9 construct: Bought, R&D Systems; not shown: Fc part of the bought reagent
T9 sequence (looked up): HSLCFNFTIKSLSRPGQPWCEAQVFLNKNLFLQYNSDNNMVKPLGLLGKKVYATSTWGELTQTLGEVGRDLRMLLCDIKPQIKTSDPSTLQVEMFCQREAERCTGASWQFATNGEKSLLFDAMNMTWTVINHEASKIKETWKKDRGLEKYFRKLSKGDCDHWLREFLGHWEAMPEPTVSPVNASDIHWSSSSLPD

human NKG2D-Fc [6] = molecular target: T2, human NKG2D-Fc; assay: phage ELISA: phage-displayed ULBP2 α1-α2 variant titrated against NKG2D (the legend gives no form; Example 5 selected on human NKG2D-Fc)
human NKG2D-Fc [7] = molecular target: T2, human NKG2D-Fc; assay: phage ELISA: phage-displayed ULBP3 α1-α2 variant titrated against NKG2D (the legend gives no form; Example 5 selected on human NKG2D-Fc)

B1: MICA-α3-iFv.2 (designed binder)
chain: EPHSLRYNLTVLSWDGSVQSGFLTEVHLDGQPFLRCDRQKCRAKPQGQWAEDVLGNKTWDRETRDLTGNGKDLRMTLAHIKDQKEGLHSLQEIRVCEIHEDNSTRSSQHFYYDGELFLSQNLETKEWTMPQSSRAQTLAMNVRNFLKEDAMKTKTHYHAMHADCLQELRRYLKSGVVLRRTVPPMVQVTRSEASGGSGDRVTITCRASQDVSTAVAWYQQKPGKAPKLLIYSASFLYSGVPSRFSGSGSGTDFTLTISSLQPEDFATYYCQQSYTTPPTFGQGTKVEIKGGSSRSSSSGGGGSGGGGEVQLVESGGGLVQPGGSLRLSCAASGFTFTSTGISWVRQAPGKGLEWVGRIYPTNGSTNYADSVKGRFTISADTSKNTAYLQMNSLRAEDTAVYYCARTYGIYDLYVDYTEYVMDYWGQGTLVTVSSGGSSRSSSSGGGGSGGGGDIQMTQSPSSLSASGGSGQITVTCRASGFYPWNITLSWRQDGVSLSHDTQQWGDVLPDGQGTYQTWVATRISQGEEQRFTCYMEHSGQHSTHPVPSGKGSHHHHHH
notes: His-tagged, monomeric, made in insect cells; also called sMICA-α3-iFv.2
EC50 (read off the curve) (FGFR3 (plate-coated) [1]): ~5 nM | EC50 (read off the curve) (FGFR3 (plate-coated) [2]): ~5 nM | EC50 (read off the curve) (FGFR3 (plate-coated) [3]): ~2 nM

B2: ULBP2-α3-iFv.2 (designed binder)
chain: EPHSLCYDITVIPKFRPGPRWCAVQGQVDEKTFLHYDCGNKTVTPVSPLGKKLNVTTAWKAQNPVLREVVDILTEQLRDIQLENYTPKEPLTLQARMSCEQKAEGHSSGSWQFSFDGQIFLLFDSEKRMWTTVHPGARKMKEKWENDKVVAMSFHYFSMGDCIGWLEDFLMGMDSTLEPSAGAPPMVQVTRSEASGGSGDRVTITCRASQDVSTAVAWYQQKPGKAPKLLIYSASFLYSGVPSRFSGSGSGTDFTLTISSLQPEDFATYYCQQSYTTPPTFGQGTKVEIKGGSSRSSSSGGGGSGGGGEVQLVESGGGLVQPGGSLRLSCAASGFTFTSTGISWVRQAPGKGLEWVGRIYPTNGSTNYADSVKGRFTISADTSKNTAYLQMNSLRAEDTAVYYCARTYGIYDLYVDYTEYVMDYWGQGTLVTVSSGGSSRSSSSGGGGSGGGGDIQMTQSPSSLSASGGSGQITVTCRASGFYPWNITLSWRQDGVSLSHDTQQWGDVLPDGQGTYQTWVATRISQGEEQRFTCYMEHSGQHSTHPVPSGKGSHHHHHH
notes: His-tagged, monomeric, insect cells; also called NKG2DL-α3-iFv.2 (ULBP2)
binding result (human NKG2D-Fc [4]): binds | EC50 (read off the curve) (FGFR3 (plate-coated) [5]): ~2 nM

B3: Y152A plus Y199A NKG2D ectodomain (receptor)
chain: EPHHHHHHGLNDIFEAQKIEWHENSLFNQEVQIPLTESYCGPCPKNWICYKNNCYQFFDESKNWYESQASCMSQNASLLKVYSKEDQDLLKLVKSAHWMGLVHIPTNGSWQWEDGSILSPNLLTIIEMQKGDCALYASSFKGAIENCSTPNTYICMQRTV
modifications: biotin on the avitag sequence (BirA)
notes: Expressed with His-avitag; also called non-natural NKG2D double mutant Y152A and Y199A
binding result (MICA-Fc): no binding (tested: 2000 nM) | binding result (MICwed-Fc): no binding (tested: 2000 nM) | binding result (MICv25-Fc): no binding (tested: 2000 nM) | binding result (MICB-Fc): no binding (tested: 2000 nM) | binding result (ULBP1-Fc): no binding (tested: 2000 nM) | binding result (ULBP2-Fc): no binding (tested: 2000 nM) | binding result (ULBP3-Fc): no binding (tested: 2000 nM) | binding result (ULBP4-Fc): no binding (tested: 2000 nM)

B4: V151D (ligand)
α1-α2 domain, fused to pIII of M13 phage: AAEPHSLSYDITVIPKFRPGPRWCAVQGQVDEKTFLHYDCGNKTVTPVSPLGKKLNVTTAWKAQNPVLREVVDILTEQLRDIQLENYTPKEPLTLQARMSCEQKAEGHSSGSWQFSFDGQIFLLFDSEKRMWTTVHPGARKMKEKWENDKDVAMSFHYFSMGDCIGWLEDFLMGMDSTLEPSAGAP
EC50 (read off the curve) (human NKG2D-Fc [6]): ~0.01 OD268 (phage)

B5: ULBP3 R162G α1-α2 domain (phage-displayed library parent) (ligand)
chain: AAEPHSLWYNFTIIHLPRHGQQWCEVQSQVDQKNFLSYDCGSDKVLSMGHLEEQLYATDAWGKQLEMLREVGQRLRLELADTELEDFTPSGPLTLQVRMSCESEADGYIRGSWQFSFDGRKFLLFDSNNRKWTVVHAGARRMKEKWEKDSGLTTFFKMVSMGDCKSWLRDFLMHRKKRLEPTAP
binding result (human NKG2D-Fc [7]): binds
